Literature values in article PMC5871712.
Read-outs that look alike come from different tables or passages of the source.

Key:
[1] = molecular target: CRFR1 (Rattus norvegicus) (UniProt P35353)
[2] = molecular target: CRFR2 (Rattus norvegicus) (UniProt P47866)
[3] = molecular target: CRFR1 (Rattus norvegicus) (UniProt P35353); remark: listed apart in the source
[4] = molecular target: CRFR2 (Rattus norvegicus) (UniProt P47866); remark: listed apart in the source

Sequence of CRFR2 (Rattus norvegicus) (P47866 20-411): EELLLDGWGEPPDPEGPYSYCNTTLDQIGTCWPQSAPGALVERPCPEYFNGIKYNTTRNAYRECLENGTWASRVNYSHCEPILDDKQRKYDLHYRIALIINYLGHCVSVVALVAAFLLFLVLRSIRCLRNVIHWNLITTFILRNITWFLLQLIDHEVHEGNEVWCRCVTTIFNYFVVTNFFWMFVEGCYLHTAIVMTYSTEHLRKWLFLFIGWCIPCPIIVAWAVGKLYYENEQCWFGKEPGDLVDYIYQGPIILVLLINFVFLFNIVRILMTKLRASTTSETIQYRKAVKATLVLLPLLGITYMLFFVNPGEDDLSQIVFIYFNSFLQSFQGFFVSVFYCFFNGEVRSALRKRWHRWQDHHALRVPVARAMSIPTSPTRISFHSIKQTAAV
Sequence of CRF (P01143 145-187): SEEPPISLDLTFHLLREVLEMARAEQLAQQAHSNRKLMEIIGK
Sequence of CRFR1 (Rattus norvegicus) (P35353 24-415): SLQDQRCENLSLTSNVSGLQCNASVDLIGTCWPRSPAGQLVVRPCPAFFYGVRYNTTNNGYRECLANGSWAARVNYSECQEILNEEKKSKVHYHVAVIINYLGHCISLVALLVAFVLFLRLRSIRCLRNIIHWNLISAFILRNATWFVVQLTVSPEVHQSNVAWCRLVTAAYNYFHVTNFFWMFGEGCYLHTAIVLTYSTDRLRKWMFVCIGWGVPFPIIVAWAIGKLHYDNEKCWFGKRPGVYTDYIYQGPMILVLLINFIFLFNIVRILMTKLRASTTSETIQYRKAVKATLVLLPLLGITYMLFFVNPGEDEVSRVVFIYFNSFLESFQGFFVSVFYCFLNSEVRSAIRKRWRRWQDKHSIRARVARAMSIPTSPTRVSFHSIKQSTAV
Sequence of Ucn1 (P55090 81-122): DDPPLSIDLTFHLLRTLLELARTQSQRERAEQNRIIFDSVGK

| Substance | Ki [1] [nM] | Ki [2] [nM] | Ki [3] [nM] | Ki [4] [nM] |
| --- | --- | --- | --- | --- |
| Ucn1 (from UniProt P55090) | 0.17 | 0.86 |  |  |
| CRF (from UniProt P01143) |  |  | 1.6 | 42 |
